Test results published in paper PMC11724954.

Each binder was assayed against T1, QCP (bacteriophage Qβ coat protein) (bacteriophage Qβ, UniProt P03615 2-133) (assay: SPR).
T1 sequence: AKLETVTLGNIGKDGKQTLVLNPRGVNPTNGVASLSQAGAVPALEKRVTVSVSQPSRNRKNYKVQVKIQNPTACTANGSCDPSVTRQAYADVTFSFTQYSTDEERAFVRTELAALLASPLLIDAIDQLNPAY

In order of rising Kd:
1. CCCUUAGCUAAGCUAAGUGAAAAAAAAAAAAAAAAAAAAAAAA (structured_RNA) [A18]  16 nM
2. CCAUUAGCUAAGCUAAUGGAAAAAAAAAAAAAAAAAAAAAAAA (structured_RNA) [A14]  17.8 nM
3. CCUUUAGCUAAGCUAAUGGAAAAAAAAAAAAAAAAAAAAAAAA (structured_RNA) [A16]  28.9 nM
4. CCCUUAGCUAAGCUAAGGUAAAAAAAAAAAAAAAAAAAAAAAA (structured_RNA) [A19]  80.4 nM
5. CCGUUAGCUAAGCUAAUGGAAAAAAAAAAAAAAAAAAAAAAAA (structured_RNA) [A15]  86.2 nM
6. CCUCUAGCUAAGCUAUAGGAAAAAAAAAAAAAAAAAAAAAAAA (structured_RNA) [A17]  90.8 nM
